Measured values as given in patent US20130078251A1 (Hoffmann-La Roche, published 2013).
Where a chain is given by its changes, count along the chain named. Values belong to the binder of their own block, whether it stands above or below them.

What was measured:
[1] = molecular target: T1, recombinant D3 domain of MCSP (UniProt Q6UVK1 1582-2224, limits assumed); assay: Biacore T100, antibody amine-coupled on CM5 chip, MCSP D3 as analyte, 1:1 model, 25 °C
T1 construct: domain: D3 domain; also called MCSP D3
T1 sequence (looked up): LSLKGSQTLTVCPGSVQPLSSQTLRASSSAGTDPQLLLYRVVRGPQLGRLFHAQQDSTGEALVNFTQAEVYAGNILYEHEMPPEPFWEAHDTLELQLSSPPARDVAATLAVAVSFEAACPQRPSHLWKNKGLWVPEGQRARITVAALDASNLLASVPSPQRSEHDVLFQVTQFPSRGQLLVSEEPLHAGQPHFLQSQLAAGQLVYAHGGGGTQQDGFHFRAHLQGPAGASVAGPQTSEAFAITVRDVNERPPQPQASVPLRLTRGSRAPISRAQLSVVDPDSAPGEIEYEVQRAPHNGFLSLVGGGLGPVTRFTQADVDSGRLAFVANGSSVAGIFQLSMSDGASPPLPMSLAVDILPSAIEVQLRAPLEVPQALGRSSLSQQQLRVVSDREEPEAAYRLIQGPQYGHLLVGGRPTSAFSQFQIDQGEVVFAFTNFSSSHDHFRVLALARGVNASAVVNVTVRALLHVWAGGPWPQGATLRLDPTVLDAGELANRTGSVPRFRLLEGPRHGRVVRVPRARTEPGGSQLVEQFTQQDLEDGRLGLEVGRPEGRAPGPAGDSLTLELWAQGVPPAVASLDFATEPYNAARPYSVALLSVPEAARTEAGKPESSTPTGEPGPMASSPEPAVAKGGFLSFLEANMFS
Description: (§1) The monovalent binding affinities for the chimeric LC007 and the humanized variant M4-3 ML2 were determined using a Biacore assay. Briefly, the antibodies were chemically immobilized on a CM5 chip (Biacore) via amine-coupling (activation with EDC-NHS, coupling of 5000 RU for each antibody, deactivation with ethanolamine). The recombinant D3 domain of MCSP was used as analyte. The experiment was performed at 25° and 37° in HBS-EP+ running buffer on a Biacore T100. […] The surface was regenerated between injections with 10 mM glycine pH 2 for 30 s. The sensorgrams were fitted with the 1:1 binding model (with RI=0 and Rmax=local) to determine the Kd.

[2] = molecular target: T1, recombinant D3 domain of MCSP; assay: Biacore T100, antibody amine-coupled on CM5 chip, MCSP D3 as analyte, 1:1 model, 37 °C
Description: as §1

[3] = molecular target: T2, human MCSP (melanoma chondroitin sulfate proteoglycan) on melanoma cells (human, UniProt Q6UVK1 30-2322); assay: FACS titration on Colo38 melanoma cells, FITC anti-human IgG Fc secondary antibody
T2 construct: Endogenous MCSP of human melanoma cell lines; also called surface MCSP; native form of MCSP
Description: (§2) Binding activity was determined by the following method. Target cells were detached from culture flask with cell dissociation buffer, counted and checked for viability. Cells were resuspended and adjusted to 1.111×10⁶ (viable) cells/ml in PBS-0.1% BSA. 180 μl of this suspension were transferred to each well (200,000 cells/well) in a round bottom 96-well-plate, centrifuged for 4 min, at 400 g, and resuspended. 20 μl of antibody dilutions in PBS-0.1% BSA (from 10 μg/ml to 0.002 μg/ml) were added to each well. The samples were centrifuged for 4 min, at 400 g, and resuspended. Secondary antibody, FITC-conjugated AffiniPure F(ab′)2 fragment goat anti-human IgG Fcg Fragment Specific (Jackson Immuno Research Lab #109-096-098)), was added and the sample centrifuged for 4 min, at 400 g, and resuspended. Fluorescence was measured in flow cytometer (e.g. FACS Canto II). Antibody 9.2.27, described in Morgan A C Jr, Galloway D R, Reisfeld R A. Hybridoma. 1981; 1(1):27-36.; GenBank Accession Numbers: GI:20797193 and GI:20797189 for light and heavy chain respectively, was used as a reference (FIG. 2). Human melanoma cell-lines Colo38, A2058, and A375 were used. Giacomini et al. 1985 (for Colo38). Marquardt H, Todaro G J. J Biol Chem. 1982 May 10; 257(9):5220-5 (for A2058). Geiser M, Schultz D, Le Cardinal A, Voshol H, García-Echeverría C. Cancer Res. 1999 Feb. 15; 59(4):905-10 (for A375).

[4] = molecular target: T2, human MCSP (melanoma chondroitin …); assay: FACS titration on A2058 melanoma cells, FITC anti-human IgG Fc secondary antibody
Description: as §2

[5] = molecular target: T3, Construct 4, CSPG repeat 12-15 of human MCSP with the original transmembrane region (human, UniProt Q6UVK1 1702-2246); assay: FACS titration on HEK-EBNA cells transfected with the construct
T3 construct: Expressed on HEK-EBNA cells
T3 sequence: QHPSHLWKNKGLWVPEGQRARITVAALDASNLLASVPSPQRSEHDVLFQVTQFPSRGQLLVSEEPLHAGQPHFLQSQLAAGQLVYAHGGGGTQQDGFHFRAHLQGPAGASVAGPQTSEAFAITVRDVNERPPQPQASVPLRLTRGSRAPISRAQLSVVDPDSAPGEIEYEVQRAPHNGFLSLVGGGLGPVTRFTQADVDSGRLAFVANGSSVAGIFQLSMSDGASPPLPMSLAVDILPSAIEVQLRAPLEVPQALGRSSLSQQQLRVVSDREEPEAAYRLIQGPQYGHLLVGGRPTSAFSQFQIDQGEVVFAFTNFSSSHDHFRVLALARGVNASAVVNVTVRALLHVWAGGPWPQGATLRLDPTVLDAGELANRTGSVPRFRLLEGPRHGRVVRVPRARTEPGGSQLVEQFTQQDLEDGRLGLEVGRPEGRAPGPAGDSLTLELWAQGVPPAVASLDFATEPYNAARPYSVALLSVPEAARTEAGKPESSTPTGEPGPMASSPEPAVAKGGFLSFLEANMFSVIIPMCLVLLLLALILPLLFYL

[6] = molecular target: T4, Construct 1, CSPG repeat 15 of human MCSP with the original transmembrane region (human, UniProt Q6UVK1 2044-2246); assay: as above
T4 construct: Expressed on HEK-EBNA cells; also called construct including only the MCSP repeat 15 and the natural transmembrane domain
T4 sequence: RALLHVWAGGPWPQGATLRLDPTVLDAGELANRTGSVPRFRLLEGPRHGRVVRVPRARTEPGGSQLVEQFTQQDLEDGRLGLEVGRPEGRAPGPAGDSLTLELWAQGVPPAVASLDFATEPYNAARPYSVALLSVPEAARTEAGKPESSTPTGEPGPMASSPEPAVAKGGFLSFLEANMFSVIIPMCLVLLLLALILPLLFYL

[7] = molecular target: T5, cynomolgus MCSP D3 domain expression construct (cynomolgus, UniProt Q6UVK1 1582-2224 (human entry), limits assumed); assay: flow cytometry titration on HEK-EBNA cells electroporated with the FLAG-tagged D3 domain construct
T5 construct: also called cynomolgus construct; cynomolgus antigen
T5 chain: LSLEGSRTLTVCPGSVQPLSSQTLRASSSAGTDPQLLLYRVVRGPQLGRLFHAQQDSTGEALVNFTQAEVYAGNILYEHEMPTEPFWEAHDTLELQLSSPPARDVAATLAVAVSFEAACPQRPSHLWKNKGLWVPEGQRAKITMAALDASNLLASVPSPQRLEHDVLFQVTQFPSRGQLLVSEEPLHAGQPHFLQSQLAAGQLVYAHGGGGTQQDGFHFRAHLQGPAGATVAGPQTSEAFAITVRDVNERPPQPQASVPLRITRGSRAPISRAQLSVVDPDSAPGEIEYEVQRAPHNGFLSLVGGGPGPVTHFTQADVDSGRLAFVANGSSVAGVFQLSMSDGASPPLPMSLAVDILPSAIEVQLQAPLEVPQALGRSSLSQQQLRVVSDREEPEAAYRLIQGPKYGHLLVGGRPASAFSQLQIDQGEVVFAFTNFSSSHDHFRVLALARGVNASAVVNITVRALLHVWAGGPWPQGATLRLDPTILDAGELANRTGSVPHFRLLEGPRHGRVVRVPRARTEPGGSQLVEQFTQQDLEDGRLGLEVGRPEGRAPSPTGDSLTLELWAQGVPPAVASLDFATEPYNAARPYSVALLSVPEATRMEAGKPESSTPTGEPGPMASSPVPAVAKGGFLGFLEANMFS
From the text: (§3) An expression construct was generated that included the C-terminal part of the cynomolgus MCSP protein, a signal peptide for secretion and a N-terminal FLAG-tag (SEQ ID NO: 8) to test for crossreactivity towards the cynomolgus antigen. This domain was referred to as the D3 domain Tillet, F. et. Al, J. Biol. Chem. 272: 10769-10776 (1997). A similar construct was done for the human counterpart (SEQ ID NO: 9). An expression plasmid encoding for these two construct was electroporated into HEK-EBNA cells, and expression was confirmed with an anti-FLAG antibody. Binding of LC007 antibody was then tested by flow cytometry.

[8] = molecular target: T6, human MCSP D3 domain expression construct (human, UniProt Q6UVK1 1582-2224, limits assumed); assay: as above
T6 construct: Built like the cynomolgus construct (signal peptide, N-terminal FLAG-tag); also called corresponding human expression construct; human counterpart
T6 sequence: T1 sequence (looked up) with R122H
From the text: as §3

[9] = molecular target: T2, human MCSP (melanoma chondroitin …); assay: FACS titration on A375 melanoma cells, FITC anti-human IgG Fc secondary antibody
Description: as §2

T2 sequence (Q6UVK1 30-2322 limits assumed): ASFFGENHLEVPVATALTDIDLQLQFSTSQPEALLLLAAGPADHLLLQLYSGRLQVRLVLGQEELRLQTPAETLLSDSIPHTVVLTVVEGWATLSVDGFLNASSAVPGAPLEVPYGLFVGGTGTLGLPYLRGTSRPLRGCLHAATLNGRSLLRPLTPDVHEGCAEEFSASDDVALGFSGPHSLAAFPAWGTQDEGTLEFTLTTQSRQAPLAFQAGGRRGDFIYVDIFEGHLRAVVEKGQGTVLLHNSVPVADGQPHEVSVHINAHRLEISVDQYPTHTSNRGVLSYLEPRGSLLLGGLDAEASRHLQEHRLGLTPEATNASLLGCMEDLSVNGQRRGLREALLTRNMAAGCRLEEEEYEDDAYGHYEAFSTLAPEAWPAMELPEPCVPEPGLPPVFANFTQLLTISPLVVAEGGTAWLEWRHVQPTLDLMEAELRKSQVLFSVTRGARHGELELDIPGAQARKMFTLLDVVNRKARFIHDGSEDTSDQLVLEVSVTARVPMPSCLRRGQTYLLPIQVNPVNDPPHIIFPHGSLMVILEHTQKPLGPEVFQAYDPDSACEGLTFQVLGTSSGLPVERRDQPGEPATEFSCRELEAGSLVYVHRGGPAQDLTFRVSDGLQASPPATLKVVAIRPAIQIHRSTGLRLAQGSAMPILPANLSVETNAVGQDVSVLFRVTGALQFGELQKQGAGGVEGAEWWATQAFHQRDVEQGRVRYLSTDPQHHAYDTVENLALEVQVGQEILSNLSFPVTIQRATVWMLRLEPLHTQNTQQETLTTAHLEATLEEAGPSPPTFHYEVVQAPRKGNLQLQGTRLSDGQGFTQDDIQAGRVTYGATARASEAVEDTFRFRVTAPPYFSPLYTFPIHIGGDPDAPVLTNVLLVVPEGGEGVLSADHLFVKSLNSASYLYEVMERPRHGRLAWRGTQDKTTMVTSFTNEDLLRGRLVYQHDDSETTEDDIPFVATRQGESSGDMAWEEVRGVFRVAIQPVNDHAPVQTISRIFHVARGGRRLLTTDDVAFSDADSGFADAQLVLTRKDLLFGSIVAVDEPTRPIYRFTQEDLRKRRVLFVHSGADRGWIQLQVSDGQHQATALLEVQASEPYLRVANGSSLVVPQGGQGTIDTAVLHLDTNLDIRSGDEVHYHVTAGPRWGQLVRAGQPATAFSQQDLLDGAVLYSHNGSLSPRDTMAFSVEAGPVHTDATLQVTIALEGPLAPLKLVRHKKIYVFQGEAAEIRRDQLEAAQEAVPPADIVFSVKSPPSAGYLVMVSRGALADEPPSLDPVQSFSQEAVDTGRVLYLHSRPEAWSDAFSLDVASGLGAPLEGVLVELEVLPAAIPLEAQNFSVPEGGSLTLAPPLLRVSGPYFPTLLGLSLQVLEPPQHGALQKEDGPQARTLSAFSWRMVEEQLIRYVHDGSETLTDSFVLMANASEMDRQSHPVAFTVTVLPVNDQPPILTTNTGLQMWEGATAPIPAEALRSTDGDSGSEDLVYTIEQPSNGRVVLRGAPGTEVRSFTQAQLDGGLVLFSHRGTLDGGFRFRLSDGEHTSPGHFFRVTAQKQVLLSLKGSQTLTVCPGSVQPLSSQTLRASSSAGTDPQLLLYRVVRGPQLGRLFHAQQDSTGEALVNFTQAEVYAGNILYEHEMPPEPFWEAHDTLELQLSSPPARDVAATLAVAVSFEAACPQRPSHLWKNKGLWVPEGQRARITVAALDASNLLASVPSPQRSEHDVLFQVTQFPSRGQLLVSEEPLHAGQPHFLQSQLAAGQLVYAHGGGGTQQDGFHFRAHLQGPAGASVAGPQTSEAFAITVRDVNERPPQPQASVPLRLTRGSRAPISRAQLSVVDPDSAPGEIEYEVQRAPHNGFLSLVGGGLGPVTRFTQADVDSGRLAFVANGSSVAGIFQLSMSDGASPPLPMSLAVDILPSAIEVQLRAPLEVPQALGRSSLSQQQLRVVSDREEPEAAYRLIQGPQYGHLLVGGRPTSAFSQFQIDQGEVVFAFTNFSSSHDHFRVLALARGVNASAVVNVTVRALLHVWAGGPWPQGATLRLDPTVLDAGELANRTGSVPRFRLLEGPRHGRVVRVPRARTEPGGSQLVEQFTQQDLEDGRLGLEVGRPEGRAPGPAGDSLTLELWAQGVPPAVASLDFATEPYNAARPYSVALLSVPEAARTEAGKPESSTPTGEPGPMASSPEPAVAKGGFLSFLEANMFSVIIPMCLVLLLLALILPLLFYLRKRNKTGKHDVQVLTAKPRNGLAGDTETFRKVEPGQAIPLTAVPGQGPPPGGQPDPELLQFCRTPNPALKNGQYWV

Kd [1]: 0.0114 µM | Kd [2]: 0.0166 µM
B1: humanized variant M4-3 ML2 (antibody, human IgG1, kappa, V domains shown)
VH: QVQLQESGPGLVKPSQTLSLTCTVSGGSITSGYYWNWIRQHPGKGLEWIGYITYDGSNNYNPSLKSRVTISRDTSKNQFSLKLSSVTAADTAVYYCADFDYWGQGTLVTVSS
VL: DIQMTQSPSSLSASVGDRVTITCRASQGIRNYLNWYQQKPGKAPKLLIYYTSSLHSGVPSRFSGSGSGTDFTLTISSLQPEDFATYYCQQYSKLPWTFGQGTKVEIKR
notes: also called M4-3 ML2 antibody

Kd [1]: 0.0098 µM | EC50 (read off the curve) [3]: ~0.05 mg/L | EC50 (read off the curve) [4]: ~0.03 mg/L | EC50 (read off the curve) [5]: ~0.3 mg/L | binding result [6]: no binding (tested: 5 ug/ml) | Kd [2]: 0.0108 µM | EC50 (read off the curve) [7]: ~0.1 mg/L | EC50 (read off the curve) [8]: ~0.08 mg/L | EC50 (read off the curve) [9]: ~0.05 mg/L
B2: chimeric antibody LC007 (antibody, human IgG1, kappa, V domains shown)
VH: EVQLQESGPGLVKPSQSLSLTCSVTGYSITSGYYWNWIRQFPGNKLEWMGYITYDGSNNYNPSLKNRISITRDTSKNQFFLKLNSVTTEDTATYYCADFDYWGQGTTLTVSS
VL: DIVLTQSPSSLSASLGDRVTISCSASQGIRNYLNWYQQRPDGTVKLLIYYTSSLHSGVPSRFSGSGSGTDYSLTISNLEPEDIATYYCQQYSKLPWTFGGGTKLEIKR
notes: also called LC007 antibody; chimeric LC007
